Here are results for one molecule from US10202593B2, “Evolved sortases and uses thereof” (President and Fellows of Harvard College, priority 2013, dated 2019).

Data set [1] has as its system LPETG (Abz-LPETGK(Dnp)-CONH2). Kind of data set: In vitro sortase kinetics HPLC assay, LPETG substrate. Type of data set: biochemical. Particulars: substrate wt (LPETG). In outline:
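Abz-LXEXGK(Dnp) peptides in 300 mM Tris pH 7.5, 150 mM NaCl, 5 mM CaCl2, 5% DMSO, GGG; 22.5° C., acid-quenched, converted fraction by reverse-phase HPLC peak areas. kcat and Km from eight substrate concentrations fit to Michaelis-Menten; KH at 1 mM substrate over eight GGG levels.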

The subject of data set [2] is LPESG (Abz-LPESGK(Dnp)-CONH2). Kind of data set: In vitro sortase kinetics HPLC assay, LPESG substrate. The class given is biochemical. On the procedure: See below for details on sortase expression and purification, and on the synthesis of Abz-LPETGK(Dnp)-CONH2 (SEQ ID NO: 19). […] Reactions were initiated with the addition of enzyme and incubated at 22.5° C. for 3 to 20 minutes before quenching with 0.5 volumes of 1 M HCl. Five to ten nmol of peptide from the quenched reactions were injected onto an analytical reverse-phase Eclipse XDB-C18 HPLC column (4.6×150 mm, 5 μm, Agilent Technologies) and chromatographed using a gradient of 10 to 65% acetonitrile with 0.1% TFA in 0.1% aqueous TFA over 13 minutes. Retention times under these conditions for the Abz-LPETGK(Dnp)-CONH2 (SEQ ID NO: 19) substrate, the released GKDnp peptide, and the Abz-LPETGGG-COOH (SEQ ID NO: 20) product were 12.8, 10.4, and 9.1 min, respectively. To calculate the percent conversion, the ratio of the integrated areas of the Abz-LPETGGG-COOH (SEQ ID NO: 20) and Abz-LPETGK(Dnp)-CONH2 (SEQ ID NO: 19) peptide Abs220 peaks was compared to a standard curve generated by mixing the product and starting peptide in known ratios. To determine […] and Km, reaction rates were fit to the Michaelis-Menten equation using OriginPro 7.0 software. All kinetics values reported represent the average of at least three measurements. Percent conversion was also calculated by using the ratio of the integrated areas of the GK(Dnp)-CONH2 and Abz-LPETGK(Dnp)-CONH2 peptide Abs355 peaks were compared directly (Example 5). To determine kcat and Km, LPETG, reaction rates were fit to the Michaelis-Menten equation using Microsoft Excel using the Solver add-in. To determine Km,GGG and KH, reaction rates were fit to the modified Michaelis-Menten, for which KH is as defined when KH<<Km,GGG.
Assays to determine eSrtA, eSrtA(2A-9) and eSrtA(4S-9) specificity were performed by preparing 10 μM stocks of Abz-LXEXGK(Dnp) (SEQ ID NO: 75) peptides in 300 mM Tris pH 7.5, 150 mM NaCl, 5 mM CaCl2, 5% v/v DMSO, and 100 mM Gly-Gly-Gly-COOH (GGG). Reactions were performed by adding eSrtA(2A-9) to a final concentration of 450 nM, eSrtA(4S-9) to a final concentration of 115 nM or eSrtA to a final concentration of 47.5 nM and a final volume of 100 μL, then incubating at 22.5° C. for 15 minutes. Reactions were quenched by the addition of 0.2 volumes of 5 M HCl, then were injected onto an analytical reverse-phase Eclipse XDB-C18 HPLC column (4.6×150 mm, 5 μm, Agilent Technologies) and chromatographed using a gradient of 10 to 65% acetonitrile with 0.1% TFA in 0.1% aqueous TFA over 13 minutes. Retention times under these conditions for the Abz-LPETGK(Dnp)-CONH2 (SEQ ID NO: 19) substrate, the released GKDnp peptide, and the Abz-LPETGGG-COOH (SEQ ID NO: 20) product were 12.8, 10.4, and 9.1 min, respectively, while the remaining Abz-LXEXGK(Dnp)-CONH2 (SEQ ID NO: 74) substrates varied in retention time between 9 and 13 minutes. To calculate the percent conversion, the ratio of the integrated areas of the GK(Dnp)-CONH2 and Abz-LPETGK(Dnp)-CONH2 (SEQ ID NO: 19) peptide Abs355 peaks were compared directly. Subsequent determination of kcat/Km and KH were performed as described for in vitro SrtA characterization.
In each case, rate constants were determined by measuring enzyme velocity at eight different substrate concentrations by HPLC assay, then fit using nonlinear regression to the Michaelis-Menten equation, yielding kcat and Km. KH was calculated by measuring enzyme velocity at 1 mM target substrate and eight different GGG concentrations by HPLC assay, then fitting the resulting curves using nonlinear regression to the modified Michaelis-Menten equation.

The next data set deals with mouse tissues. Kind of data set: Tissue modification with GGG-Biotin (SA-568 fluorescence). On the procedure: FIG. 10 is a graph showing the relative increase in fluorescence of mouse tissues specifically labeled with GGG-Biotin (detected with SA-568) using a sortase recognizing the LPESG (SEQ ID NO: 3) sortase recognition motif.
Tissue section microarrays were purchased from the BioChain institute (Cat. Z7020001, Lot B508112) and deparaffinized by treatment with 2 changes Xylene for 9 minutes each, 1 change 1:1 Xylene:Ethanol for 3 minutes, 1 change 100% ethanol for 3 minutes, 1 change 90% ethanol for 3 minutes, 1 change 70% ethanol for 3 minutes, 1 change 70% ethanol+0.25% ammonia for 1 hour, 1 change 50% ethanol for 3 minutes, 1 change DI water for 5 minutes. Antigen retrieval was achieved by soaking in 10 mM Citrate pH 6 followed by microwave heating for 2 minutes, then let to rest for 8 minutes. Tissues were washed with 10 mg/mL freshly prepared Sodium borohydride in PBS for 30 minutes on ice, then washed twice with PBS for 3 minutes each.
Slides were blocked in 5% BSA/PBS for 1 hour at room temperature, then 0.001% (w/v) avidin in 5% BSA/PBS for 15 minutes, washed with 5% BSA/PBS, 0.001% (w/v) biotin in 5% BSA/PBS for 15 minutes, washed with 5% BSA/PBS and washed twice in TBS-BC (100 mM TBS, 500 mM NaCl, 0.5% BSA, 5 mM CaCl2) for three minutes. Slides were then treated with 20 uM Enzyme and 200 uM GGG-Biotin for 1 hour at room temperature, washed with 10 mM GGG in 5% BSA/PBS for 3 minutes, then washed twice with 5% BSA/PBS for 3 minutes. Slides were then treated with 2 mg/mL Sudan Black B in 70% EtOH for 30 minutes, washed three times with 5% BSA/PBS, incubated in 5% BSA/PBS+1:250 Streptavidin-568 for 30 minutes, washed 3 times with PBS, incubated with DAPI/PBS for 30 minutes and finally washed 3 times with PBS. Slides were dried, mounted and then visualized by confocal microscopy.
Tissue staining was performed as described previously, with biotin signal false colored in red and DAPI stain false colored in blue. In each case, total integrated biotin signal was computed for both negative control and SrtA+ samples, then background subtracted and used to calculate the total fluorescence enrichment shown in FIG. 10.

Where two headings read alike, the source gives them in different places.

B1: 4S.6A: 5mut + N98D A104V A118S F122A K134G I182V E189V (protein)
chain: QAKPQIPKDKSKVAGYIEIPDADIKEPVYPGPATREQLDRGVSFVEENESLDDQNISISGHTAIDRPNYQFTNLGAAKKGSMVYFKVGNETRKYKMTSIRNVKPTAVEVLDEQKGKDKQLTLVTCDDYNVETGVWETRKIFVATEVK
For the molecule B1, the “kcat, 10 mM GGG (Hz)” value was 1.102 Hz in data set [1] (10 mM GGG) and 0.9537 Hz in data set [2] (substrate 4S (LPESG), 10 mM GGG). Also, the Km in data set [1] (read-out: Km, LxExG) was 1290 µM; in data set [2] (1 mM 4S (LPESG) substrate, read-out: Km, GGG) it was 4950 µM; in data set [2] (substrate 4S (LPESG), read-out: Km, LxExG), 102 µM. For the same molecule, the “Khydrolysis” value in data set [2] (1 mM 4S (LPESG) substrate) was found to be 179.3 µM. Further, the “kcat, 1 mM LxExG (Hz)” value in data set [2] (1 mM 4S (LPESG) substrate, GGG varied) is listed as 1.931 Hz. Moreover, in data set [2] (FIG. 2), the “increase in kcat/Km for LPESG as compared to LPETG” value was roughly 5 fold. For the same molecule, the “specificity (relative cat. Efficiency, fold)” value in data set [2] (ratio of kcat/Km between 4S (LPESG) and wt (LPETG) substrates) was 11 fold. In data set [2] (substrate 4S (LPESG)), this molecule had a kL/KL/KH of 5.24E+07. The “kHydrolysis (Hz)” value in data set [2] (substrate 4S (LPESG), 1 mM, GGG varied) was found to be 0.06696 Hz. Also, the “labeling of tissue with GGG-Biotin” value in the data set on mouse tissues (bladder tissue), in the data set on mouse tissues (pancreas tissue), with mouse tissues (prostate tissue), in the data set with mouse tissues (small intestine tissue), with mouse tissues (spleen tissue) and with mouse tissues (testis tissue) was “specific labeling” in each case. Further, in the data set on mouse tissues (uterus tissue), the “labeling of tissue with GGG-Biotin” value was “specific labeling”.
